Literature values in PMC7322545.

Experiments:
CCL3 (Homo sapiens) = CCL3 (Homo sapiens) (UniProt P10147)
CCL4 (Homo sapiens) = CCL4 (Homo sapiens) (UniProt P13236)
CCL18 (Homo sapiens) = CCL18 (Homo sapiens) (UniProt P55774)

Measured: Kd

Chain of UniProt P55774 (P55774 24-89): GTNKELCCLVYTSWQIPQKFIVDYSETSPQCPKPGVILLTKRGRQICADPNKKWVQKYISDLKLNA
Chain of UniProt P10147 (P10147 24-92): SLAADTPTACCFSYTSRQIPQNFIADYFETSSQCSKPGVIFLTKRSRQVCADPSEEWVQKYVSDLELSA
Chain of UniProt P13236 (P13236 24-92): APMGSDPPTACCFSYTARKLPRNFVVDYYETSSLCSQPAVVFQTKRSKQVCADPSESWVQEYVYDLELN

EVA-1 (from UniProt P0C8E7)
< 5 nM: all assays above
